According to paper PMC10570038:
Where “and” joins values, the source holds several entries; their conditions need not be identical. Equal entries are not always repeated.

Tests used:
[1] = biological target: RBPMS-A FL (rat) (UniProt A0A8I6G705); test: EMSA; settings: no binding in 0-6 uM; EMSA: 10 nM RNA, 25 mM HEPES pH 7.9, 100 mM KCl, 2 mM MgCl2, 0.625 mM DTT, 0.1 mg/ml BSA, 5% glycerol, 30 C 1 h, then 5 mg/ml heparin 10 min; 5% native PAGE in …
[2] = biological target: recombinant untagged rat RBPMS-A ΔC20 (rat); test: SEC; size exclusion chromatography of purified untagged recombinant protein; compared with size markers (443 kDa marker, void volume)
[3] = biological target: recombinant untagged rat RBPMS-A ΔC20 (rat); test: AUC; sedimentation velocity, 40 000 rpm, 20°C, 20 mM HEPES, 1 mM TCEP, pH 7.9, 500 mM KCl; FL and ΔC20 at equal molar concentration (0.46 and 0.57 mg/ml); continuous c(s) model
[4] = biological target: recombinant untagged rat RBPMS-A ΔC20 (rat); test: AUC; sedimentation velocity, 40 000 rpm, 20°C, 20 mM HEPES, 1 mM TCEP, pH 7.9, 60 mM KCl; FL 0.7, 0.48, 0.24, 0.11 mg/ml; ΔC20 0.5 or 0.1 mg/ml; continuous c(s) model
[5] = biological target: recombinant untagged rat RBPMS-A ΔC20 (rat); test: cross-linking; glycerol gradients supplemented with a glutaraldehyde cross-linker (GraFix)

percent eluting as dimer [2] | stoichiometry N [2] | stoichiometry N [3] | stoichiometry N [4] | stoichiometry N [5] | Substance | Kd [1]
– | – | – | – | – | GUCUACGCACCCUCAACCCGCACCUUGCGGGAUG [(CAC)2] | > 6 µM
96% | 2 | 2 | 2 and 3 | 3 and 4 | recombinant untagged rat RBPMS-A ΔC20 (domain or fragment) | –
